Data on six molecules can be found in patent publication US20060121042A1 (AstraZeneca / MedImmune, published 2006).

Assay [1] concerns the target T1, r murine EphA4 (mouse, UniProt Q03137).
T1 construct: recombinant Fc fusion (R&D Systems); also called rmuEphA4-Fc; mEphA4
Kind of assay: activity ELISA, Fab on coated antigen. Here is the method: (§1) More precisely, Nunc Maxisorp plates were coated with the following rEphA proteins: rhuEphAl-Fc, rmuEphA2-Fc, rmuEphA3-Fc, rmuEphA4-Fc, rratEphA5-Fc, rmuEphA6-Fc, rmuEphA7-Fc, rEphA8; all at 0.5 μg/well (all R&D Systems) rhuEphA2-Fc; 0.5 μg/well, and rhuEphA4-His; 0.1 μg/well (both produced at MedImmune, Inc.). Plates were blocked with 3% BSA+0.1% Tween20 for 2 h. […] Incubation with a goat anti-human kappa horseradish peroxydase (HRP) conjugate then followed. HRP activity was detected with TMB substrate and the reaction quenched with 0.2 M H₂SO₄. Plates were read at 450 nm. Data was analyzed by normalizing Fab concentrations to the corresponding activity data (see FIGS. 10B-10H).
In general terms: An ELISA detects its analyte on a solid surface through an enzyme-linked reagent.

Assay [2] has as its target T2, r murine EphA7 (mouse, UniProt Q61772).
T2 construct: recombinant Fc fusion (R&D Systems); also called rmuEphA7-Fc; mEphA7
T2 sequence (receptor-Fc fusion, looked up): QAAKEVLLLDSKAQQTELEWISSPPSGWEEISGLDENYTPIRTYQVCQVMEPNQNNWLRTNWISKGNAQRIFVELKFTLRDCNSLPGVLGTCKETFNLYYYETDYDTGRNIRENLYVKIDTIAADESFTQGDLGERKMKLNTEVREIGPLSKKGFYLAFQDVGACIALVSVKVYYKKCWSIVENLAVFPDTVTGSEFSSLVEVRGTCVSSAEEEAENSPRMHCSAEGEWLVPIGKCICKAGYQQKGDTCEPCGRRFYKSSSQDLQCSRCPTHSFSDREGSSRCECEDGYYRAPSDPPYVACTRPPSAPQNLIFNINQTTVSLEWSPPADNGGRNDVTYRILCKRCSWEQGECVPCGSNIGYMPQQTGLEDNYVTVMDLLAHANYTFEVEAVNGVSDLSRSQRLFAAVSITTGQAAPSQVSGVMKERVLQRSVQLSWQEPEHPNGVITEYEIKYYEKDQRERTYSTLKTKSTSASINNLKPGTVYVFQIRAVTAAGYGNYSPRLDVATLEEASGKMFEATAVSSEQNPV
Kind of assay: activity ELISA, Fab on coated antigen. Here is the method: as §1

The target of assay [3] is T3, r murine EphA8 (mouse, UniProt O09127).
T3 construct: recombinant (rEphA8, R&D Systems); also called rEphA8
T3 sequence (receptor, looked up): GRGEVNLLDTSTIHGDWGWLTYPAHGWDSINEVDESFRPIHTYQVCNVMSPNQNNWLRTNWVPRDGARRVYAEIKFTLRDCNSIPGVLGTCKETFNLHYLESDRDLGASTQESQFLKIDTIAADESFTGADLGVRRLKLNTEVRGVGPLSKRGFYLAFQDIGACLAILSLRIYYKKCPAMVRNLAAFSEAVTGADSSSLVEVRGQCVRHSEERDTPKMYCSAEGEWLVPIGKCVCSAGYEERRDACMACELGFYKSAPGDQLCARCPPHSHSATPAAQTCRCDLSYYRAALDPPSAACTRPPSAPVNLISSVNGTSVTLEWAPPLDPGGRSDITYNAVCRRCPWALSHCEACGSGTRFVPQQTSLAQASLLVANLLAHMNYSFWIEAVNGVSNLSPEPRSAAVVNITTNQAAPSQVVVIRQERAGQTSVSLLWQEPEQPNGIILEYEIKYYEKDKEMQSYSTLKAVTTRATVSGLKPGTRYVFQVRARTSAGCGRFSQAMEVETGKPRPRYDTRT
Put plainly: activity ELISA, Fab on coated antigen. Here is the method:
as §1

The target in assay [4] is T4, human EphA4 (construct not given) (human, UniProt P54764 20-547, limits assumed).
T4 construct: also called EphA4 receptor
Put plainly: capture ELISA, 25 ng/well sheep anti-human Fd.

For assay [5], the target named is T1, r murine EphA4. Put plainly: activity ELISA, IgG on coated antigen. On the procedure:
(§2) Secondary screening of IgG constructs of affinity optimized combinatorial variants with additional EphA receptors: With purified IgG constructs of the nine combinatorial variants, additional secondary screening assays were performed using the Activity ELISA (see above) and recombinant EphA receptor proteins. More precisely, Nunc Maxisorp plates were coated with the following rEphA proteins: rhuEphAl-Fc; 0.5 μg/well, rmuEphA2-Fc; 0.5 μg/well, rmuEphA3-Fc: 0.1 μg/well, rmuEphA4-Fc; 0.1 μg/well, rratEphA5-Fc; 0.5 μg/well, rmuEphA6-Fc; 0.5 μg/well, rmuEphA7-Fc; 0.1 μg/well, rEphA8; 0.2 μg/well (all R&D Systems), rhuEphA2-Fc; 0.5 μg/well, and rhuEphA4-His; 0.1 μg/well (both produced at MedImmune, Inc.). Plates were blocked with 3% BSA+0.1% Tween20 for 2 h. […] Incubation with a goat anti-human kappa horseradish peroxydase (HRP) conjugate then followed. HRP activity was detected with TMB substrate and the reaction quenched with 0.2 M H₂SO₄. Plates were read at 450 nm. Data was analyzed by normalizing Fab concentrations to the corresponding activity data (see FIGS. 12A-12J and 14).

For assay [6], the target named is T2, r murine EphA7. Kind of assay: activity ELISA, IgG on coated antigen. On the procedure:
as §2

Assay [7] concerns the target T5, Human EphA4-Fc fusion protein (human, UniProt P54764 20-547).
T5 construct: not shown: Fc portion of a human IgG1
Put plainly: BIAcore, IgG immobilized on the sensor chip, EphA4-Fc as analyte. Here is the method: (§3) FIG. 15A-15B. […] Binding affinities were measured using the BIAcore assay. […] Variant kinetic measurements for human EphA4 and were obtained using BIAcore with immobilized variant antibodies and human EphA4-Fc and EphA4-His as analytes.

The target of the next assay is T6, mEphA4 (mouse, UniProt Q03137).
T6 construct: part of an Fc fusion; also called rmuEphA4-Fc
Put plainly: ELISA, receptor coated on the plate, purified IgG, anti-human kappa-HRP. Here is the method: as §2

Another assay deals with T7, mEphA7 (mouse, UniProt Q61772).
T7 construct: part of an Fc fusion; also called rmuEphA7-Fc
T7 sequence (receptor-Fc fusion, looked up): T2 sequence (receptor-Fc fusion, looked up)
Described as above. Here is the method: as §2

The target of assay [8] is T8, r murine EphA8 (mouse, UniProt O09127).
T8 construct: recombinant soluble protein coated on the plate; also called mEphA8; rEphA8
T8 sequence (receptor construct, looked up): T3 sequence (receptor, looked up)
Put plainly: Activity ELISA, receptor coated on the plate, purified IgG, anti-human kappa-HRP, OD 450 nm. On the procedure: as §2

Assay [9] concerns the target T9, Human EphA4-His fusion protein (human, UniProt P54764 20-547).
T9 construct: also called rhuEphA4-His; not shown: Histidine tag
Kind of assay: BIAcore, IgG immobilized on the sensor chip, EphA4-his as analyte; comment on the sheet: marginal fit. Here is the method: as §3
(In general: In SPR one partner is held on a chip, and binding of the other changes the refractive index at the surface.)

Assay [10] addresses T5, Human EphA4-Fc fusion protein. Put plainly: BIAcore, IgG immobilized on the sensor chip, EphA4-Fc as analyte; comment on the sheet: marginal kinetic fit. Here is the method:
as §3

Another assay has as its target mEph A2 (mouse, UniProt Q03145). Kind of assay: ELISA.

Where a chain is given by its changes, count along the chain named.

T5 sequence (P54764 20-547): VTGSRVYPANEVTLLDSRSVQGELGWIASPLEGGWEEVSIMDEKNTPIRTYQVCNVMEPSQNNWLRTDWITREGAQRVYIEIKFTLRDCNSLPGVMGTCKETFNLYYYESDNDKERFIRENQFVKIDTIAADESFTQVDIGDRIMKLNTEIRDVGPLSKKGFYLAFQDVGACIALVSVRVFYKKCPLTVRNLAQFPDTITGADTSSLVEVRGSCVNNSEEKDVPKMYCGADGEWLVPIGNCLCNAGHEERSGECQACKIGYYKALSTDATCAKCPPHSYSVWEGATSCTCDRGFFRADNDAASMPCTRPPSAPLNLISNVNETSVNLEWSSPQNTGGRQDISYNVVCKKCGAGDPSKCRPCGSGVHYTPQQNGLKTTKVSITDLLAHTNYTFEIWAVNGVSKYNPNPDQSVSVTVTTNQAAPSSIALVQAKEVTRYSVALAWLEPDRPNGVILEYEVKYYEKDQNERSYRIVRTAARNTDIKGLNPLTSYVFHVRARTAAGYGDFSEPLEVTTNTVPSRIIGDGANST
T9 sequence (P54764 20-547): as above
T1 sequence (Q03137 20-547 limits assumed): as the sequence (P54764 20-547) above, with P59A, N121S, V124G, R250Q, S251N, T270S, K378R, N406S counted along it
T4 sequence (P54764 20-547 limits assumed): as the sequence (P54764 20-547) above
T6 sequence (Q03137 20-547 limits assumed): as the sequence (P54764 20-547) above, with P59A, N121S, V124G, R250Q, S251N, T270S, K378R, N406S counted along it
Sequence of mEph A2 (Q03145 26-535 limits assumed): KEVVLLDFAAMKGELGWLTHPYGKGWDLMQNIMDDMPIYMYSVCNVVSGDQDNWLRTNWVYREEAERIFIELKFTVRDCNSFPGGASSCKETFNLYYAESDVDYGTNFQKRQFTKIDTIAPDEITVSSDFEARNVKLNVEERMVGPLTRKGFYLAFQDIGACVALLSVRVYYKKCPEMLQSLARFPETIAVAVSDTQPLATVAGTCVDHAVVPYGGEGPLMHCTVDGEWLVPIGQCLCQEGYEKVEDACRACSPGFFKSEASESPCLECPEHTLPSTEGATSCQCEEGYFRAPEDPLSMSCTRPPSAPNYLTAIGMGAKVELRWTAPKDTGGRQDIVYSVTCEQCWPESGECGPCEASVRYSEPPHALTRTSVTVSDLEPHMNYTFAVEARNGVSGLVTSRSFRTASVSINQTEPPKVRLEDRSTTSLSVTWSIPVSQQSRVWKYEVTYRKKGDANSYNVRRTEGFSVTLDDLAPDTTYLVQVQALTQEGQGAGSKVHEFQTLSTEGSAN

B1: 2C9 Fab (affinity optimized combinatorial variant of Fab20) (Fab, V domains shown)
VH: QVQLLQSGAEVKKPGASVKVPCKASGYTFTSRAMSWVRQAPGQGLEWMGWINTNTGNPTYAQGFTGRFVFSLDTSVSTAYLQISSLKAEDTAVYYCARVRFTVYGDGMDVWGQGTLVTVSS
VL: EIVLTQSPATLSVSPGERATLSCRASQSVSSNLAWYQQKPGQAPRLLIYGASTRPTGIPDRFSASGSGTDFTLTISRVEPEDFAVYYCQQYGPSWTFGQGTKVEIK
B1: the binding result in the assay with r murine EphA4 [1], in the assay with r murine EphA7 [2] and with r murine EphA8 [3] was “binds” each time.

B2: 11G6 Fab (affinity optimized CDR3 heavy variant of Fab20) (Fab, V domains shown)
VH: B1 VH with R32Y
VL: B1 VL with P55A, P93S
On to B2, for which, in [4], the “fold increase in affinity over Fab20 parental background” value is 1.6 fold.

B3: 11H1 Fab (single-change CDR3 heavy variant of Fab20) (Fab, V domains shown)
VH: B1 VH with R32Y, F101L
VL: B1 VL with P55A, P93S
notes: also called GEA44 derivative 11H1
Take B3: the “fold increase in affinity over Fab20 parental background” value in [4] was determined as 1.4 fold.

B4: 2C9 IgG1 (affinity optimized combinatorial variant of mAb GEA44 in human IgG1 format) (antibody, V domains shown)
VH: B1 VH
VL: B1 VL
As to B4, the binding result in the assay with r murine EphA4 [5], with r murine EphA7 [6], with mEphA4, with mEphA7 and with r murine EphA8 [8] was “binds” throughout. The same molecule showed a Kd in assay [7] of 44 pM. For the same molecule, the koff in [7] came to 1.91e-05 s⁻¹. For the same molecule, the kon in assay [7] was 434000 M⁻¹ s⁻¹.

B5: 1B10 IgG1 (affinity optimized combinatorial variant of mAb GEA44 in human IgG1 format) (antibody, V domains shown)
VH: B1 VH
VL: B1 VL with L33P, R54W, P55A
For B5, the binding result with r murine EphA4 [5], in the assay with r murine EphA7 [6], with mEphA4 and with mEphA7 was “binds” throughout. Also, the Kd turned out to be 1000 pM in assay [9] and 23 pM in [10]. The koff turned out to be 0.000602 s⁻¹ in [9] and 5.41e-05 s⁻¹ in assay [10]. Also, the kon in [9] came out at 600000 M⁻¹ s⁻¹; in assay [10] it was 2.33e+06 M⁻¹ s⁻¹.

B6: 1D3 (antibody, V domains shown)
VH: EVQLLESGGGLVQPGGSLRLSCAASGFTFSPYDMLWVRQAPGKGLEWVSRIGSSGGYTKYADSVKGRFTISRDNSKNTLYLQMNSLRAEDTAVYYCARARSVVVSSDAFDIWGQGTMVTVSS
VL: DIQMTQSPSSVSASVGDRVTITCRASQGISKWLAWYQQKPGKAPKLLIFGASTLQSGVPSKFSGSKSGTDFTLTISSLQPEDSATYYCQQYNDYPLTFGGGTKVEIK
As for B6, the “ELISA O.D. value” with mEph A2 worked out at 0.316.

As usually defined, the Kd is the equilibrium constant for the complex coming apart. As usually defined, the koff is the rate constant with which the complex falls apart. As usually defined, the kon is the second-order rate constant of association. Read a low kon as slow association.
